Test results as given in paper PMC3575409, “Identification of a Novel Protein-Protein Interaction Motif Mediating Interaction of GPCR-Associated Sorting Proteins with G Protein-Coupled Receptors” (PLoS ONE, 2013).

What was measured:
Format in all cases: binding
GST-fused DOR C-tail = experiment: GST-pull down, DOR C-tail; conditions: compared with full-length GASP-1
Text: (§1) cDNAs encoding the cytoplasmic C-tail of 14 GPCRs and 2 one-transmembrane receptors were cloned into the pGEX-2T prokaryotic expression vector downstream the GST sequence. The following pGEX constructs were engineered: pGEX-DOR encoding residues 314–372 of the δ-opioid receptor (referring to Swiss-Prot accession number U10504), pGEX-MOR encoding residues 334–400 of the µ-opioid receptor (L29301), pGEX-KOR encoding residues 326–380 of the κ–opioid receptor (U17298), pGEX-ORL1 encoding residues 315–370 of the opioid receptor-like 1 (X77130), pGEX-M1 encoding residues 414–460 of the muscarinic M1 acetylcholine receptor (X52068), pGEX-M2 encoding residues 436–466 of the muscarinic M2 acetylcholine receptor (M16404), pGEX- ADRB1 encoding residues 373–477 of the β1 adrenergic receptor (J03019), pGEX-ADRB2 encoding residues 322–413 of the β2 adrenergic receptor (P07550), pGEX-CALCR encoding residues 407–490 of the calcitonin receptor (L00587), pGEX-CNR2 encoding residues 295–360 of the cannabinoid type 2 receptor (P34972), pGEX-5HT7 encoding residues 380–445 of the 5-hydroxytryptamine 7 receptor (L21195), pGEX-H2 encoding residues 284–349 of the histamine 2 receptor (S57565), pGEX-TXA2 encoding residues 304–343 of the α isoform of the thromboxane A2 receptor (D38081), pGEX-FZ4 encoding residues 493–537 of the frizzled 4 receptor (AB032417), pGEX-TGFβ encoding residues 805–849 of the type III transforming growth factor b receptor (L07594), pGEX-IGF1 encoding residues 1268–1367 of the insulin growth factor I receptor (X04434). Free GST was produced by using the pGEX-4T3 expression vector without insert. The same plasmid was used to clone the cDNA encoding a central domain of GASP-1, corresponding to amino acids 380 to 1073, downstream the GST sequence. All these plasmids were transformed into the Escherichia coli BL21 strain and expression was induced using 1mM of isopropylthiogalactoside for 2 h at 37°C. Bacteria were then pelleted, resuspended in PBS supplemented with cOmplete protease inhibitors (Roche), lysed at 1.5 kbar using a basic Z cell disrupter (constant system) and finally the lysates were cleared by centrifugation (10,000g, 15 min, 4°C).
(§2) cDNAs encoding GASP-1 and GASP-2 were cloned into the pcDNA3 eukaryotic expression vectors. cDNAs encoding GASP-3, -6, -7, and -9 were subcloned into pcDNA3.1 vectors. All the clones were controlled by DNA sequencing. The in vitro production was performed by using the TNT Quick-coupled Transcription/Translation T7 kit (Promega) in presence of [^35S]-Methionine according to the instructions from the manufacturer.
(§3) GST-fusion proteins were immobilized on glutathione-coupled Sepharose beads (GE Healthcare) for 1 h at 4°C and incubated with [^35S]-labelled in vitro translated GASP proteins or their truncated or mutated forms in ice-cold binding buffer containing: 20 mM Tris-HCl pH 7.4, 150 mM NaCl, 1 mM EDTA, 1 mM DTT, 10% glycerol and 1% Triton X-100. The mixture was incubated for 1 h at 4°C with gentle rocking. The beads were washed five times with the same ice-cold buffer, resuspended in 30 µl SDS-PAGE sample buffer, incubated 10 min at 65°C, and pelleted for 60 s at 3000 g. The supernatants were then analyzed by SDS-PAGE, the gels were stained with Coomassie blue to visualize GST-fusion proteins, dried and analyzed using a Phosphor-imager (Personal Molecular Imager FX, Biorad) to visualize [^35S]-labelled GASPs. Quantification was performed with the Quantity One software (Biorad). GST-pull down quantification data were analyzed using GraphPad Prism 4.03 (GraphPad Software). Quantifications presented are means of at least three independent experiments.

GST-fused ADRB1 C-tail = experiment: GST-pull down, ADRB1 C-tail; conditions: compared with full-length GASP-1
Text: as §1, §2, §3

GST-fused M1 C-tail = experiment: GST-pull down, M1 C-tail; conditions: compared with full-length GASP-1
Text: as §1, §2, §3

GST-fused GPCR C-tails = experiment: GST-pull down, GPCR C-tails; conditions: for interaction with GPCR C-tails: twelve GPCR C-tails
Text: as §1, §2
as §3, with “experiments. […]” for “experiments.”

[1] = tested on: GST-fused IGF1 (insulin growth factor I receptor) C-tail; experiment: GST-pull down, IGF1 C-tail; conditions: non-GPCR control
Text: as §1, §2, §3

[2] = tested on: GST-fused TGFβ (type III transforming growth factor β receptor) C-tail; experiment: GST-pull down, TGFβ C-tail; conditions: non-GPCR control
Text: as §1, §2, §3

interaction with IGF1 C-tail [1]	interaction with TGFβ C-tail [2]	Molecule	interaction of truncated GASP-1 with DOR C-tail (GST-fused DOR C-tail)	interaction with GPCR C-tails (GST-fused GPCR C-tails)	further results
–	–	mutant D: derived from mutant 924–1395 by deletion of 95 AA from the C-terminus (protein, UniProt Q5JY77 924-1300, looked up, fragment) CCVSKPEDDEEMIVESWFWSRDKAIKETGTVATCESKPENEEGAIVGSWFEAEDEVDNRTDNGSNCGSRTLADEDEAIVGSWFWAGDEAHFESNPSPVFRAICRSTCSVEQEPDPSRRPQSWEEVTVQFKPGPWGRVGFPSISPFRFPKEAASLFCEMFGGKPRNMVLSPEGEDQESLLQPDQPSPEFPFQYDPSYRSVQEIREHLRAKESTEPESSSCNCIQCELKIGSEEFEELLLLMEKIRDPFIHEISKIAMGMRSASQFTRDFIRDSGVVSLIETLLNYPSSRVRTSFLENMIRMAPPYPNLNIIQTYICKVCEETLAYSVDSPEQLSGIRMIRHLTTTTDYHTLVANYMSGFLSLLATGNAKTRFHVLKML	completely lost	–	–
–	–	mutant 380–1395: truncated mutant of GASP-1 that lacks the N-terminal part (protein, [35S]-methionine labelled) MTKEEAKTKARARAKQEARSEEEALIGTWFWATDESSMADEASIESSLQVEDESIIGSWFWTEEEASMGTGASSKSRPRTDGERIGDSLFGAREKTSMKTGAEATSESILAADDEQVIIGSWFWAGEEVNQEAEEETIFGSWFWVIDAASVESGVGVSCESRTRSEEEEVIGPWFWSGEQVDIEAGIGEEARPGAEEETIFGSWFWAENQTYMDCRAETSCDTMQGAEEEEPIIGSWFWTRVEACVEGDVNSKSSLEDKEEAMIPCFGAKEEVSMKHGTGVRCRFMAGAEETNNKSCFWAEKEPCMYPAGGGSWKSRPEEEEDIVNSWFWSRKYTKPEAIIGSWLWATEESNIDGTGEKAKLLTEEETIINSWFWKEDEAISEATDREESRPEAEEGDIIGSWFWAGEEDRLEPAAETREEDRLAAEKEGIVGSWFGAREETIRREAGSCSKSSPKAEEEEVIIGSWFWEEEASPEAVAGVGFESKPGTEEEEITVGSWFWPEEEASIQAGSQAVEEMESETEEETIFGSWFWDGKEVSEEAGPCCVSKPEDDEEMIVESWFWSRDKAIKETGTVATCESKPENEEGAIVGSWFEAEDEVDNRTDNGSNCGSRTLADEDEAIVGSWFWAGDEAHFESNPSPVFRAICRSTCSVEQEPDPSRRPQSWEEVTVQFKPGPWGRVGFPSISPFRFPKEAASLFCEMFGGKPRNMVLSPEGEDQESLLQPDQPSPEFPFQYDPSYRSVQEIREHLRAKESTEPESSSCNCIQCELKIGSEEFEELLLLMEKIRDPFIHEISKIAMGMRSASQFTRDFIRDSGVVSLIETLLNYPSSRVRTSFLENMIRMAPPYPNLNIIQTYICKVCEETLAYSVDSPEQLSGIRMIRHLTTTTDYHTLVANYMSGFLSLLATGNAKTRFHVLKMLLNLSENLFMTKELLSAEAVSEFIGLFNREETNDNIQIVLAIFENIGNNIKKETVFSDDDFNIEPLISAFHKVEKFAKELQGKTDNQNDPEGDQEN	interacted similarly	–	interaction of truncated GASP-1 with ADRB1 C-tail (words) (GST-fused ADRB1 C-tail): interacted similarly; interaction of truncated GASP-1 with M1 C-tail (words) (GST-fused M1 C-tail): interacted similarly
no interaction was detected	no interaction was detected	GASP-2: member of the GASP family, two GASP motifs (protein, [35S]-methionine labelled) MTGAEIEPSAQAKPEKKAGEEVIAGPERENDVPLVVRPKVRTQATTGARPKTETKSVPAARPKTEAQAMSGARPKTEVQVMGGARPKTEAQGITGARPKTDARAVGGARSKTDAKAIPGARPKDEAQAWAQSEFGTEAVSQAEGVSQTNAVAWPLATAESGSVTKSKGLSMDRELVNVDAETFPGTQGQKGIQPWFGPGEETNMGSWCYSRPRAREEASNESGFWSADETSTASSFWTGEETSVRSWPREESNTRSRHRAKHQTNPRSRPRSKQEAYVDSWSGSEDEASNPFSFWVGENTNNLFRPRVREEANIRSKLRTNREDCFESESEDEFYKQSWVLPGEEANSRFRHRDKEDPNTALKLRAQKDVDSDRVKQEPRFEEEVIIGSWFWAEKEASLEGGASAICESEPGTEEGAIGGSAYWAEEKSSLGAVAREEAKPESEEEAIFGSWFWDRDEACFDLNPCPVYKVSDRFRDAAEELNASSRPQTWDEVTVEFKPGLFHGVGFRSTSPFGIPEEASEMLEAKPKNLELSPEGEEQESLLQPDQPSPEFTFQYDPSYRSVREIREHLRARESAESESWSCSCIQCELKIGSEEFEEFLLLMDKIRDPFIHEISKIAMGMRSASQFTRDFIRDSGVVSLIETLLNYPSSRVRTSFLENMIHMAPPYPNLNMIETFICQVCEETLAHSVDSLEQLTGIRMLRHLTMTIDYHTLIANYMSGFLSLLTTANARTKFHVLKMLLNLSENPAVAKKLFSAKALSIFVGLFNIEETNDNIQIVIKMFQNISNIIKSGKMSLIDDDFSLEPLISAFREFEELAKQLQAQIDNQNDPEVGQQS	–	medium to strong interactions	GASP input retained by GPCR C-tails (GST-fused GPCR C-tails; percent of GASP input): > 10%
No interaction was detected	No interaction was detected	GASP-7: member of the second GASP subfamily, without GASP motif (protein, [35S]-methionine labelled) MGRTREAGCVAAGVVIGAGACYCVYRLAWGRDENEKIWDEDEESTDTSEIGVETVKGAKTNAGAGSGAKLQGDSEVKPEVSLGLEDCPGVKEKAHSGSHSGGGLEAKAKALFNTLKEQASAKAGKGARVGTISGNRTLAPSLPCPGGRGGGCHPTRSGSRAGGRASGKSKGKARSKSTRAPATTWPVRRGKFNFPYKIDDILSAPDLQKVLNILERTNDPFIQEVALVTLGNNAAYSFNQNAIRELGGVPIIAKLIKTKDPIIREKTYNALNNLSVNAENQGKIKTYISQVCDDTMVCRLDSAVQMAGLRLLTNMTVTNHYQHLLSYSFPDFFALLFLGNHFTKIQIMKLIINFTENPAMTRELVSCKVPSELISLFNKEWDREILLNILTLFENINDNIKNEGLASSRKEFSRSSLFFLFKESGVCVKKIKALANHNDLVVKVKVLKVLTKL	–	weak to medium interactions and weak	–
–	–	mutant C: derived from mutant 924–1395 by deletion of 45 AA from the C-terminus (protein, UniProt Q5JY77 924-1350, looked up, fragment) CCVSKPEDDEEMIVESWFWSRDKAIKETGTVATCESKPENEEGAIVGSWFEAEDEVDNRTDNGSNCGSRTLADEDEAIVGSWFWAGDEAHFESNPSPVFRAICRSTCSVEQEPDPSRRPQSWEEVTVQFKPGPWGRVGFPSISPFRFPKEAASLFCEMFGGKPRNMVLSPEGEDQESLLQPDQPSPEFPFQYDPSYRSVQEIREHLRAKESTEPESSSCNCIQCELKIGSEEFEELLLLMEKIRDPFIHEISKIAMGMRSASQFTRDFIRDSGVVSLIETLLNYPSSRVRTSFLENMIRMAPPYPNLNIIQTYICKVCEETLAYSVDSPEQLSGIRMIRHLTTTTDYHTLVANYMSGFLSLLATGNAKTRFHVLKMLLNLSENLFMTKELLSAEAVSEFIGLFNREETNDNIQIVLAIFENIGNNIK	strong interaction	–	–
